Results taken from patent US20240400701A1 (LANOVA MEDICINES DEVELOPMENT, published 2024).
Residue numbers refer to the chain shown, from its start. In names and notes the source's numbering stands.

T1: human AMHRII (anti-Mullerian hormone receptor type 2) (human, UniProt Q16671 18-573)
T1 construct: whole, on cells; also called AMHR2; human AMHR2
T1 sequence (looked up): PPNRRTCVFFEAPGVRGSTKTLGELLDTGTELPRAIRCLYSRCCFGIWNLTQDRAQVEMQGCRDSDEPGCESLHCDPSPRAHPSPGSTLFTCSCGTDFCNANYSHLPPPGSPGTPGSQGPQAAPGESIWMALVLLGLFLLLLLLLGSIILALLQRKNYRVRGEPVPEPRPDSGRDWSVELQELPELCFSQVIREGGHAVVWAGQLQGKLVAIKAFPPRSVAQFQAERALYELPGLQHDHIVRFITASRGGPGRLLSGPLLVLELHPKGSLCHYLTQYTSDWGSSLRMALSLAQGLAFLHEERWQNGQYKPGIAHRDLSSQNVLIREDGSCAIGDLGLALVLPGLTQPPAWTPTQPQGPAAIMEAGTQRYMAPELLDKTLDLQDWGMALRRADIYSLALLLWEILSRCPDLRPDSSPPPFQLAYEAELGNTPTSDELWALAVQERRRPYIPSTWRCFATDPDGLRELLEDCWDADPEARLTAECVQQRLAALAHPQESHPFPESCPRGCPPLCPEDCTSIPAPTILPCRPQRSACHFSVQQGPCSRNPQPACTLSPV

B1: 31D9B3 VH1.3-VL2 hIgG1 (antibody, V domains shown)
VH: QVQLVQSGAEVKKPGASVKVSCKASGYTFTDYWVSWVRQAPGQGLEWMGEIYPKNQVSNFNEKFKGRVTMTTDTSTSTAYMELRSLRSDDTAVYYCARQRDYWGQGTLVTVSS
VL: DVVMTQSPLSLPVTLGQPASISCRSSQSLEYGDGYTYLEWYLQRPGQSPRLLIYGVSNRFSGVPDRFSGSGSGTDFTLKISRVEAEDVGVYYCFQATHDPNTFGQGTKLEIK
notes: Humanized, PTM de-risked (VH G55Q), human IgG1; also called 31D9B3 VH1.3-VL2 hlgG1
B2: 31D9B3 VH1.2-VL2 hIgG1 (antibody, V domains shown)
VH: B1 VH with Q56D
VL: B1 VL
notes: Humanized, PTM de-risked (VH G55D), human IgG1; also called 31D9B3 VH1.2-VL2 hlgG1
B3: 31D9B3 VH1.3-VL2.1 hIgG1 (antibody, V domains shown)
VH: B1 VH
VL: B1 VL with D33S
notes: Humanized, PTM de-risked, human IgG1; also called 31D9B3 VH1.3-VL2.1 hlgG1
B4: 31D9B3 VH1.3-VL2.3 hIgG1 (antibody, V domains shown)
VH: B1 VH
VL: B1 VL with D33T
notes: Humanized, PTM de-risked, human IgG1; also called 31D9B3 VH1.3-VL2.3 hlgG1
B5: 31D9B3 VH1.2-VL2.1 hIgG1 (antibody, V domains shown)
VH: B1 VH with Q56D
VL: B1 VL with D33S
notes: Humanized, PTM de-risked, human IgG1; also called 31D9B3 VH1.2-VL2.1 hlgG1
B6: 31D9B3 VH1.2-VL2.3 hIgG1 (antibody, V domains shown)
VH: B1 VH with Q56D
VL: B1 VL with D33T
notes: Humanized, PTM de-risked, human IgG1; also called 31D9B3 VH1.2-VL2.3 hlgG1
B7: 31D9B3 VH1.2-VL2.2 hIgG1 (antibody, V domains shown)
VH: B1 VH with Q56D
VL: B1 VL with G34R
notes: Humanized, PTM de-risked, human IgG1; also called 31D9B3 VH1.2-VL2.2 hlgG1
B8: 108F3D1E9 H3L1 hIgG1 (antibody, V domains shown)
VH: QVQLQESGPGLVKPSETLSLTCTVSGYSITSDFAWNWIRQFPGKGLEWMGYISFSGSTSYNPSLKSRITISRDTSKNQFSLKLSSVTAADTAVYYCAGSRYSWFAYWGQGTLVTVSS
VL: DIQMTQSPSSLSASVGDRVTITCRASESVDTYGNSFMHWYQQKPGKAPKLLIYRASNLESGVPSRFSGSGSGTDFTLTISSLQPEDFATYYCQQSNEDPYTFGGGTKVEIK
notes: Humanized, human IgG1; also called 108F3D1E9 H3L1 hlgG1
B9: 108F3D1E9 H4L4 hIgG1 (antibody, V domains shown)
VH: B8 VH with S80F, K82Q, A89E
VL: DIVLTQSPSSLSVSVGDRATITCRASESVDTYGNSFMHWYQQKPGQPPKLLIYRASNLESGIPARFSGSGSRTDFTLTISSVQPEDFATYYCQQSNEDPYTFGGGTKLEIK
notes: Humanized, human IgG1; also called 108F3D1E9 H4L4 hlgG1
B10: 108F3D1E9 H4L3 hIgG1 (antibody, V domains shown)
VH: B8 VH with S80F, K82Q, A89E
VL: B9 VL with V13A, A19V, R72G, L108V
notes: Humanized, human IgG1; also called 108F3D1E9 H4L3 hlgG1
B11: 108F3D1E9 H4L2 hIgG1 (antibody, V domains shown)
VH: B8 VH with S80F, K82Q, A89E
VL: B8 VL with M4L, A47P, V62I
notes: Humanized, human IgG1; also called 108F3D1E9 H4L2 hlgG1
B12: 108F3D1E9 H4L1 hIgG1 (antibody, V domains shown)
VH: B8 VH with S80F, K82Q, A89E
VL: B8 VL
notes: Humanized, human IgG1; also called 108F3D1E9 H4L1 hlgG1
B13: 108F3D1E9 H3L4 hIgG1 (antibody, V domains shown)
VH: B8 VH
VL: B9 VL
notes: Humanized, human IgG1; also called 108F3D1E9 H3L4 hlgG1
B14: 108F3D1E9 H3L2 hIgG1 (antibody, V domains shown)
VH: B8 VH
VL: B8 VL with M4L, A47P, V62I
notes: Humanized, human IgG1; also called 108F3D1E9 H3L2 hlgG1
B15: 108F3D1E9 H3L3 hIgG1 (antibody, V domains shown)
VH: B8 VH
VL: B9 VL with V13A, A19V, R72G, L108V
notes: Humanized, human IgG1; also called 108F3D1E9 H3L3 hlgG1
B16: 31D9B3 VH1-VL2.2 hIgG1 (antibody, V domains shown)
VH: B1 VH with Q56G
VL: B1 VL with G34R
notes: Humanized, PTM de-risked (VL G(30D)R), human IgG1; also called 31D9B3 VH1-VL2.2 hlgG1
B17: 31D9B3 H1L1 hIgG1 (antibody, V domains shown)
VH: B1 VH with Q56G
VL: B1 VL with Y41F, L42Q, L51R
notes: Humanized, human IgG1; also called 31D9B3 H1L1 hlgG1
B18: 94C4C3 H2L3 hIgG1 (antibody, V domains shown)
VH: B8 VH with V2L, F33Y, F41P, F54Y, T58I, G98R, A105D
VL: EIVLTQSPGTLSLSPGERATLSCSASESVDTYGNSFMHWYQQKPGQPPRLLIYRASSLESGIPVRFSGSGSRTDFTLTISRVEAEDFAVYYCQQSNEDPYTFGGGTKLEIK
notes: Humanized, human IgG1; also called 94C4C3 H2L3 hlgG1
B19: 94C4C3 H2L4 hIgG1 (antibody, V domains shown)
VH: B8 VH with V2L, F33Y, F41P, F54Y, T58I, G98R, A105D
VL: B18 VL with E1D, L13V, R49K
notes: Humanized, human IgG1; also called 94C4C3 H2L4 hlgG1
B20: 94C4C3 H3L4 hIgG1 (antibody, V domains shown)
VH: B8 VH with F33Y, F54Y, T58I, S80F, G98R, A105D
VL: B18 VL with E1D, L13V, R49K
notes: Humanized, human IgG1; also called 94C4C3 H3L4 hlgG1
B21: 94C4C3 H4L4 hIgG1 (antibody, V domains shown)
VH: B8 VH with S25T, F33Y, G45K, F54Y, T58I, S80F, K82Q, G98R, A105D
VL: B18 VL with E1D, L13V, R49K
notes: Humanized, human IgG1; also called 94C4C3 H4L4 hlgG1
B22: 94C4C3 H3L1 hIgG1 (antibody, V domains shown)
VH: B8 VH with F33Y, F54Y, T58I, S80F, G98R, A105D
VL: B18 VL with P47A, V64D, R72G, V82L, A84P, L108V
notes: Humanized, human IgG1; also called 94C4C3 H3L1 hlgG1
B23: 94C4C3 H4L3 hIgG1 (antibody, V domains shown)
VH: B8 VH with S25T, F33Y, G45K, F54Y, T58I, S80F, K82Q, G98R, A105D
VL: B18 VL
notes: Humanized, human IgG1; also called 94C4C3 H4L3 hlgG1
B24: 94C4C3 H4L2 hIgG1 (antibody, V domains shown)
VH: B8 VH with S25T, F33Y, G45K, F54Y, T58I, S80F, K82Q, G98R, A105D
VL: B18 VL with V82L, A84P, L108V
notes: Humanized, human IgG1; also called 94C4C3 H4L2 hlgG1
B25: 94C4C3 H3L2 hIgG1 (antibody, V domains shown)
VH: B8 VH with F33Y, F54Y, T58I, S80F, G98R, A105D
VL: B18 VL with V82L, A84P, L108V
notes: Humanized, human IgG1; also called 94C4C3 H3L2 hlgG1
B26: 94C4C3 H3L3 hIgG1 (antibody, V domains shown)
VH: B8 VH with F33Y, F54Y, T58I, S80F, G98R, A105D
VL: B18 VL
notes: Humanized, human IgG1; also called 94C4C3 H3L3 hlgG1
B27: 94C4C3 H4L1 hIgG1 (antibody, V domains shown)
VH: B8 VH with S25T, F33Y, G45K, F54Y, T58I, S80F, K82Q, G98R, A105D
VL: B18 VL with P47A, V64D, R72G, V82L, A84P, L108V
notes: Humanized, human IgG1; also called 94C4C3 H4L1 hlgG1

What follows are binders tested against T1, human AMHRII (anti-Mullerian hormone …) (assay: FACS on CHO-K1 cells over-expressing human AMHR2).
Procedure: (§1) CHO-K1 cells over-expressed AMHR2 were harvested from flasks. 100 μl of 1×10⁶ cells/ml of cells were incubated with the humanized antibodies in 3-fold serial dilutions starting from 300 nM to 0.001 nM for 30 minutes on ice. After being washed with 200 μl of FACS buffer twice, cells were incubated with secondary antibody for 30 minutes on ice. Cells were washed with 200 μl of FACS buffer twice and analyzed by FACS.

| EC50 [nM] | Top (MFI) | Binder |
| --- | --- | --- |
| 1.18 | 28000 | B1 |
| 1.51 | 26800 | B2 |
| 1.2 | 10900 | B3 |
| 0.38 | 12700 | B4 |
| 5.68 | 10600 | B5 |
| 0.617 | 12900 | B6 |
| 0.856 | 22000 | B7 |

Biological target: T1, human AMHRII (anti-Mullerian hormone …)
Experiment: FACS on CHO-K1 cells over-expressing human AMHR2
Remark: another data set of the same source
Procedure: as §1

| EC50 [nM] | Top (MFI) | Binder |
| --- | --- | --- |
| 0.74 | 65400 | B8 |
| 0.65 | 70600 | B9 |
| 0.74 | 67300 | B10 |
| 0.68 | 67900 | B11 |
| 0.55 | 64400 | B12 |
| 0.88 | 70900 | B13 |
| 0.82 | 64600 | B14 |
| 0.82 | 66700 | B15 |

What follows are binders tested against T1, human AMHRII (anti-Mullerian hormone …) (assay: FACS on Rko cells over-expressing human AMHR2).
Procedure: as §1, with “Rko” for “CHO-K1”, “over-expressing” for “over-expressed”, “primary PTM” for “the humanized”

| EC50 [nM] | Top (MFI) | Binder |
| --- | --- | --- |
| 0.915 | 17200 | B16 |
| 0.976 | 17900 | B1 |
| 1.35 | 18200 | B2 |
| 0.878 | 16300 | B7 |

Biological target: T1, human AMHRII (anti-Mullerian hormone …)
Experiment: FACS on CHO-K1 cells over-expressing human AMHR2
Remark: another data set of the same source
Procedure: as §1

| EC50 [nM] | Top (MFI) | Binder |
| --- | --- | --- |
| 89.1 | 8940 | B17 |

Biological target: T1, human AMHRII (anti-Mullerian hormone …)
Experiment: FACS on CHO-K1 cells over-expressing human AMHR2
Remark: another data set of the same source
Procedure: as §1

| EC50 [nM] | Top (MFI) | Binder |
| --- | --- | --- |
| 1.32 | 55800 | B18 |
| 1.01 | 52500 | B19 |
| 0.485 | 22400 | B16 |

Biological target: T1, human AMHRII (anti-Mullerian hormone …)
Experiment: FACS on CHO-K1 cells over-expressing human AMHR2
Remark: another data set of the same source
Procedure: as §1

| EC50 [nM] | Top (MFI) | Binder |
| --- | --- | --- |
| 1.35 | 48100 | B20 |
| 1.09 | 57900 | B21 |
| 1.32 | 51000 | B22 |
| 1.16 | 51100 | B23 |
| 1.02 | 48700 | B24 |
| 1.23 | 47700 | B25 |
| 1.03 | 46300 | B26 |
| 1.12 | 49500 | B27 |
